Assay results: paper PMC10276851, “Tozorakimab (MEDI3506): an anti-IL-33 antibody that inhibits IL-33 signalling via ST2 and RAGE/EGFR to reduce inflammation and epithelial dysfunction” (Scientific Reports, 2023)

T1: IL-33ox (Homo sapiens, UniProt O95760)
T1 chain: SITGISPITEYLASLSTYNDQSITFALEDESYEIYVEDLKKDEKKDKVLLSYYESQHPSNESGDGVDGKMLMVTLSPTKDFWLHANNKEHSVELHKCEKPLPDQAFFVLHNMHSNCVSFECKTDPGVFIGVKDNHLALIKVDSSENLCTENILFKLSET

T2: IL-33red (Homo sapiens, UniProt O95760)
T2 chain: T1 chain

T3: endogenous IL-33^red derived from human lung tissue (mixture of full-length and N-terminally truncated forms) (human (endogenous in lung tissue), UniProt O95760 1-270)
T3 sequence (looked up): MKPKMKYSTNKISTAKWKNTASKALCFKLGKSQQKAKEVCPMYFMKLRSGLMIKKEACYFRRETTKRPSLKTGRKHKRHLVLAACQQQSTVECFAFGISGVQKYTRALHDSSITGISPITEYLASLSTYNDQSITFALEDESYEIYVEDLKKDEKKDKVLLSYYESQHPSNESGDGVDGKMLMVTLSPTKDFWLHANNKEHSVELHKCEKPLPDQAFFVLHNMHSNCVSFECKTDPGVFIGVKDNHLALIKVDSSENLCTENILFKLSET

B1: tozorakimab Fab (antibody, V domains shown)
VH: EVQLLESGGGLVQPGGSLRLSCAASGFTFSSYAMSWVRQAPGKGLEWVSGISAIDQSTYYADSVKGRFTISRDNSKNTLYLQMNSLRAEDTAVYYCARQKFMQLWGGGLRYPFGYWGQGTMVTVSS
VL: SYVLTQPPSVSVSPGQTASITCSGEGMGDKYAAWYQQKPGQSPVLVIYRDTKRPSGIPERFSGSNSGNTATLTISGTQAMDEADYYCGVIQDNTGVFGGGTKLTVLG
modifications: oxidized IL-33
B2: tozorakimab (antibody, V domains shown)
VH: B1 VH
VL: B1 VL
B3: soluble serum stimulated 2 (sST2), the truncated, soluble form of ST2 (receptor, UniProt Q01638-2 19-328, looked up)
chain: KFSKQSWGLENEALIVRCPRQGKPSYTVDWYYSQTNKSIPTQERNRVFASGQLLKFLPAAVADSGIYTCIVRSPTFNRTGYANVTIYKKQSDCNVPDYLMYSTVSGSEKNSKIYCPTIDLYNWTAPLEWFKNCQALQGSRYRAHKSFLVIDNVMTEDAGDYTCKFIHNENGANYSVTATRSFTVKDEQGFSLFPVIGAPAQNEIKEVEIGKNANLTCSACFGKGTQFLAAVLWQLNGTKITDFGEPRIQQEEGQNQSFSNGLACLDMVLRIADVKEEDLLLQYDCLALNLHGLRRHTVRLSRKNPSKECF
B4: reduced interleukin-33 (IL-33^red), recombinant human, residues 112–270 (ligand, UniProt O95760 112-270, looked up)
chain: T1 chain
notes: interleukin-33, human, residues 112–270, reduced form (free cysteines); Other assays used a biotinylated Avi-tag histidine-tag form or an N-terminally tagged form; also called wild-type IL-33; source: recombinant

Experiments:
[1] = target: T1, IL-33ox; test: SPR
[2] = target: T2, IL-33red; test: KinExA
[3] = target: B4; test: cell-based or functional assay
[4] = target: T3, endogenous IL-33^red derived from human …; test: cell-based or functional assay
[5] = target: B3; test: KinExA (kinetic exclusion assay); measurement of the association rate constant (ka) of IL-33 interacting with sST2 in free solution; conditions: both partners purified
[6] = target: B3; test: KinExA (kinetic exclusion assay); equilibrium in free solution; IL-33^red against fixed sST2 (30 pM and 2.0 pM datasets), 1:1 binding model fitted to both datasets simultaneously; conditions: both partners purified

## B1
[1]
  Kd: 41 nM

## B2
[2]
  Kd: 0.03 pM

## B3
[3]
  IC50 of inhibition of IL-8 release from HUVECs driven by recombinant human IL-33^red (residues 112–270): 424 pM
[4]
  IC50 of inhibition of IL-8 release from HUVECs treated with human lung lysate (endogenous IL-33^red): 32 pM

## B4
[5]
  kon: 1.5e+08 M⁻¹ s⁻¹
[6]
  Kd: 0.09 pM
